According to the supplement of paper PMC10724198:
± gives the standard deviation of the averaged measurements.

Test system: Saccharomyces cerevisiae
Experiment: protein stability index of tFT-peptide fusion (C-terminal peptide) (PSI (0-1 scale)); higher = more stable (slower turnover)
Details: genetic background: wild type; temperature: 30 C
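Note: PSI is a weighted mean of sequencing reads over stability bins, variants kept only with over 10 reads, mCherry proximal and sfGFP distal, peptide attached via GGGS linker.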

Sequence	protein stability index
FSSSSVRINLGV	0.663 ± 0.01
SPPRPPRPRYLF	0.6947 ± 0.0062
GKRAKKKNTKRY	0.662 ± 0.14
KEQNKKQKAKDL	0.719 ± 0.1
RDTHSEPKPAQY	0.721 ± 0.0088
RKKENRYKIEVK	0.6799 ± 0.0017
RAARGGRSGTRV	0.643 ± 0.097
WRAGGGGGPAGV	0.679 ± 0.029
LSPLRPPAPSVF	0.646 ± 0.038
TVHTILYVPDEL	0.677 ± 0.021
PLPSFPFPRPSS	0.634 ± 0.037
RPTQYIYGINET	0.6525 ± 0.0034
PHSGVVVRCPSG	0.704 ± 0.022
CRLILLVCNGAG	0.521 ± 0.027
RESGASLWATMR	0.734 ± 0.015
ESIQAASANDSQ	0.688 ± 0.043
PSSLSSLPPPSP	0.669 ± 0.024
WLSDSCRMNSEV	0.666 ± 0.035
HAHPDQTKLDTA	0.7 ± 0.063
IVKFVRAIGRKK	0.664 ± 0.028
GGRGRVGEMGGR	0.677 ± 0.015
QRNPQNKDRVQD	0.663 ± 0.004
PPPPRPSPPSLP	0.676 ± 0.0058
QNIGPKEESVLA	0.682 ± 0.035
SLPLSSALFPPL	0.72 ± 0.076

Sequence	protein stability index
NLPERSRANTLS	0.6749 ± 0.0061
PARPEPPRANWR	0.647 ± 0.058
PSCLPPPAHLEL	0.705 ± 0.043
FSPPSPPHPSPL	0.741 ± 0.023
VMRRYVFPSGFF	0.677 ± 0.023
HPPITPYLHRRT	0.724 ± 0.17
LGFISGCGVFGT	0.708 ± 0.026
PTPAPLPPPSPP	0.592 ± 0.024
GDECHSCSSPIA	0.786 ± 0.13
VPPPRYLPAFPA	0.694 ± 0.0078
KEYKKKKKKIDK	0.671 ± 0.022
FLLVCLNDVLRP	0.588 ± 0.062
GFRGGAYRWCIS	0.701 ± 0.03
LGVPPVLLLASS	0.506 ± 0.0077
WGTTLMYKAKKA	0.616 ± 0.024
PQVLSPPLSTSR	0.728 ± 0.008
LPPSTYPASTPS	0.674 ± 0.054
PHPGVPPTFLSL	0.657 ± 0.11
GAAKDYLMALEG	0.705 ± 0.076
CHYSSFISFVVV	0.594 ± 0.024
DPGKWMRCHICE	0.752 ± 0.035
TRTELGKRWIRR	0.697 ± 0.061
EKMILEIKRGRI	0.688 ± 0.036
RIDRDDHLVPNS	0.626 ± 0.092
SCRLYIKVDKSA	0.6464 ± 0.0034

Sequence	protein stability index
PPRAPLPRPPQP	0.656 ± 0.011
RSLLLINRPTPP	0.714 ± 0.015
FLISLPLPAPLP	0.679 ± 0.013
GGAWESGRVEQV	0.684 ± 0.041
PNGSRPAHGVKN	0.646 ± 0.032
TRRAAARAVSAR	0.7 ± 0.066
DLPRCTLSVEDT	0.703 ± 0.0078
VVRRHKRVLMRF	0.659 ± 0.015
GRWEGLRGLGVG	0.647 ± 0.012
TQSSADCFTLDA	0.719 ± 0.052
PPPSPPAQSLRS	0.759 ± 0.079
IVGIEGYNEIKT	0.803 ± 0.27
NPYLLCKFSTLL	0.675 ± 0.028
RLVAHPSRPLPV	0.647 ± 0.033
CYGFCVRTYPAI	0.684 ± 0.037
GGDGGGERGEGK	0.701 ± 0.027
LAMALRGGLYFS	0.701 ± 0.011
RGCGGGRVAREC	0.689 ± 0.051
GVVWMSGGGWWG	0.761 ± 0.03
PPPAPPPPPTFL	0.688 ± 0.019
CVAGSGRGGVKR	0.6327 ± 0.0037
PPRPPRPPPRTP	0.694 ± 0.022
RARQYTTAMIQS	0.469 ± 0.088
